# Data published in article PMC6922093.
# Columns and labels:
# [1] = molecular target: RSV strain B18537 DS-Cav1 F glycoprotein (prefusion-stabilized soluble F trimer, subtype B) (RSV subtype B strain B18537 | phage T4); assay: crystal structure; crystals in 1.2M ammonium sulfate, 0.1M sodium acetate pH5.5, 0.1M lithium sulfate; space group P4(1)32, 1 protomer per asymmetric unit; trimer by crystal symmetry
# [2] = molecular target: RSV strain B18537 DS-Cav1 F glycoprotein (prefusion-stabilized soluble F trimer, subtype B) (RSV subtype B strain B18537 | phage T4); assay: SEC; 120 mL Superdex-200 gel filtration column in PBS buffer; single monodisperse peak compared with protein standards
substance,measurement,setting,value
"RSV strain B18537 DS-Cav1 F glycoprotein (prefusion-stabilized soluble F trimer, subtype B) (domain or fragment)",stoichiometry N,[1],3
same,stoichiometry N,[2],3
